In the Human Domainome abundance scans (Beltran et al. 2025):

B1: GAS2-like protein 1, residues 209 to 276; numbered along this chain, Q99501 (parent)
chain: DELVREILGRCTCPDQFPMIKVSEGKYRVGDSSLLIFVRVLRSHVMVRVGGGWDTLEHYLDKHDPCRC
B2: Ankyrin-1, residues 1405 to 1484; numbered along this chain, P16157 (parent)
chain: MKMAVISEHLGLSWAELARELQFSVEDINRIRVENPNSLLEQSVALLNLWVIREGQNANMENLYTALQSIDRGEIVNMLE

Variants of: B1
Test: abundance fitness (aPCA) (normalised: wild type 0, dead -1); higher = more abundant; growth selection in yeast, the domain comes from the species named
Conditions: Homo sapiens

Abundance fitness: each site, then its substitutions
R67: V -0.975; W -1.02; Y -0.995
C68: A 0.177; D 0.046; E -0.024; F 0.015; G 0.176; H 0.058; I -0.016; L 0.132; N -0.078; P -0.331; S 0.118; T 0.225; V 0.088; W -0.051; Y 0.047

Variants of: B2
Test: as above
Conditions: Homo sapiens

Abundance fitness: each site, then its substitutions
M1: V 0
K2: A -0.168; C -0.284; D -0.542; E 0.095; F -0.22; G -0.147; H -0.271; I -0.003; L -0.258; M -0.132; N -0.081; P -0.587; Q -0.155; R -0.045; S -0.4; T -0.254; V -0.089; W 0.098; Y -0.318
M3: A -0.435; C -0.385; D -0.332; E -0.275; F 0.105; G -0.533; H -0.233; I 0.127; K -0.155; L 0.208; N -0.748; P -0.474; Q -0.197; R -0.045; S -0.365; V -0.024; Y -0.708
A4: D 0.159; E -0.142; F -0.206; G 0.084; H -0.622; K 0.148; M -0.434; N -0.035; P -0.612; Q -0.041; R -0.071; S -0.259; T -0.029; V -0.35; W -0.397
V5: A -0.231; C -0.18; D -0.605; E -0.372; F 0.103; G -0.592; H -0.216; I -0.337; K -0.279; L 0.079; M -0.092; N -0.606; Q -0.483; R -0.521; S -0.361; T -0.266; Y 0.086
I6: V 0.224
S7: A 0.109; C -0.089; D -0.821; E -0.261; F -0.126; G -0.176; H -0.877; I -0.396; K -0.786; L -0.808; M -0.852; Q -0.389; R -0.504; T -0.226; W -0.691; Y -0.242
E8: A -0.175; C -0.624; D -0.3; F -0.424; G -0.273; H -0.398; I -0.559; K 0.075; L -0.383; M -0.426; N -0.06; P -0.24; Q 0.067; R -0.054; S -0.18; T -0.162; V -0.518; Y -0.722
H9: A -0.429; C 0.011; D -0.826; E -0.148; F -0.249; L -0.438; M -0.302; N -0.019; P -0.666; R -0.33; S -0.868; T -0.285; V -0.712; W -0.251; Y -0.388
L10: A -0.884; E -1.11; F -0.706; G -0.971; I -0.172; K -0.509; M -0.805; N -0.69; Q -0.898; R -0.895; S -0.852; W -0.872
G11: A -0.47; C -0.737; D -0.171; E 0.195; F -0.581; H 0.028; I -0.726; K -0.362; L -0.447; M -0.447; N -0.161; P -0.997; Q -0.276; R -0.41; S -0.616; T -0.371; W -0.893; Y -0.481
L12: A 0.213; C 0.3; D -0.124; E -0.499; F -0.069; G 0.104; H 0.274; I 0.153; K -0.133; N 0.139; Q -0.233; R -0.038; S 0.243; T 0.063; V 0.029; W -0.431
S13: A -0.021; C -0.577; D 0.155; F -0.333; G -0.237; I -0.815; L -0.417; M -0.441; N -0.404; P -0.863; R -0.442; T -0.472; V -0.5; W -0.494; Y -0.504
W14: A -0.799; C -1.05; D -0.907; E -0.788; G -0.895; H -0.873; K -0.545; L -0.538; M -0.454; N -0.865; P -0.785; R -1.08; S -0.89; T -0.758; V -0.67
A15: C -0.238; D -0.209; E 0.04; F -0.039; G -0.108; H -0.206; I 0.132; K -0.251; L 0.076; P -0.025; Q -0.171; S 0.037; T 0; V 0.066; W -0.288; Y 0.128
E16: A -0.041; C -0.271; D 0.068; F -0.23; G 0.018; H -0.104; I -0.384; K -0.088; L -0.162; M -0.207; N 0.161; P -0.091; Q -0.081; R -0.085; T -0.222; V -0.037; W -0.593
L17: A -0.607; C -0.81; D -1.01; E -0.204; F 0.009; G -0.972; H -0.671; M -0.25; N -0.776; P -0.881; R -1.03; S -0.853; W -0.636; Y -0.462
A18: C -1.05; D -0.96; E -0.39; F -0.872; G -0.075; I -0.77; L -0.535; M -0.827; N -0.627; P -0.912; Q -0.936; R -0.681; T -0.89; V -1.07; W -0.9
R19: A -0.047; C -0.17; D -0.296; F 0.067; G -0.229; H 0.064; I -0.489; K -0.048; L 0.025; M 0.003; N -0.32; Q -0.052; S -0.123; T -0.092; V -0.072; W -0.268; Y -0.434
E20: A -0.136; C -0.125; D -0.508; F -0.345; G -0.49; H -0.12; I -0.135; L -0.411; M -0.077; N -0.087; P -0.996; Q 0.069; R -0.127; S -0.145; V -0.175; Y -0.286
L21: A -1.02; C -0.727; F -0.69; G -0.965; I -0.425; M 0.048; R -0.923; S -0.645; W -0.666
Q22: A -0.066; C 0.016; D -0.218; E -0.043; F -0.092; G -0.08; H -0.413; I -0.276; K 0.011; L -0.126; M -0.008; N -0.077; P -0.522; R -0.093; S 0.018; T -0.044; V -0.494
